Assay results published in the DeepSol protein solubility set.

Test: soluble on expression in E. coli; label from the status in PepcDB or PDB records

Sequence	soluble on expression in E. coli
MSLSSLEGQENSFTINSVDMKSLPDWTVQNGKNLTLQCFADVSTTSHVKPQHQMLFYKDDVLFYNISSMKSTESYFIPEVRIYDSGTYKCTVIVNNKEKTTAEYQLLVEGVPSPRVTLDKKEAIQGGIVRVNCSVPEEKAPIHFTIEKLELNEKMVKLKREKNSRDQNFVILEFPVEEQDRVLSFRCQARIISGIHMQTSESTKSELVTVTESFSTPKFHISPTGMIMEGAQLHIKCTIQVTHLAQEFPEIIIQKDKAIVAHNRHGNKAVYSVMAMVEHSGNYTCKVESSRISKVSSIVVNITELFSKPELESSFTHLDQGERLNLSCSIPGAPPANFTIQKEDTIVSQTQDFTKIASKSDSGTYICTAGIDKVVKKSNTVQIVVCEMLSEGHHHHHH	not soluble
MSLSSPNLSFYYNECERFESFLKNHHLHLESFHPYLEKAFFEMVLNGGKRFRPKLFLAVLCALVGQKDYSNQQTEYFKIALSIECLHTYSLIHDDLPCMDNAALRRNHPTLHAKYDETTAVLIGDALNTYSFELLSNALLESHIIVELIKILSANGGIKGMILGQALDCYFENTPLNLEQLTFLHEHKTAKLISASLIMGLVASGIKDEELFKWLQAFGLKMGLCFQVLDDIIDVTQDEEESGKTTHLDSAKNSFVNLLGLERANNYAQTLKTEVLNDLDALKPAYPLLQENLNALLNTLFKGEGHHHHHH	soluble
MSLSTLKREQIKKDLKDQEFDVVIIGGGITGAGIALDASERGMKVALVEMQDFAQGTSSRSTKLVHGGLRYLKQLQVGVVAETGRERAIVYENGPHVTTPERMLLPMHKGGSMGKFTTSIGLAMYDRLAGVKKAERKTMLNAKETLEKEPLVKKAGLKGGGSYVEYRTDDARLTIEVMKRAEEKGAKVINHTKSVHFTYDSNEKVNGIQVEDQISNETYPIKAKKVINASGPWVDEVRSGDYARNNKQLRLTKGVHIVIDQSKFPLGQAVYFDTEKDGRMIFAIPREGKAYVGTTDTFYDNNKTSPLANQEDRDYLIDAINYMFPDVNVADEDIESSWAGVRPLILEEGKDPSEISRKDEVWEGKSGLLTIAGGKLTGYRHMALEIVDLLSKRLKSEFGLKFDKCATKHLTISGGDVGGSANFDKFIEQKVEEAKSYQIDESTARHFASKYGSNAEELFKIAQTAQYQETGLPLDIYTELVYSIQNEMVYRPTDFFIRRTGKLYFKIDDVLNYKEQVIDVMAGLLGYTNIEKEAYTKELQIAIDEAQTGNHQPAVKELEHHHHHH	not soluble
MSLSTMLVAEDLSAVGGISLSSALPVLTAMQYDVAALPTSLLSTHTSGYGTPAVVDLSTWLPQVFAHWTRAQLHFDQALIGYVGSVALCQQITTYLEQQTLSLLVVDPVLGDLGQLYQGFDQDYVAAMRQLIQQADVILPNTTEAALLTGAPYQVTPDLEVILPALQAQLKTGAHAVITDVQRADQIGCAWLDEAGHVQYCGARRLPGHYNGTGDTLAAVIAGLLGRGYPLAPTLARANQWLNMAVAETIAQNRTDDRQGEGHHHHHH	not soluble
MSLSTYTTGELAKHVGVSVRTIQYYDQRGLLTPMTTAGGRREYTAQDIERLQLILVLKSMGLKLAAIKDILNSPNATDVLQLLLTEQVQRLRQDQAATTTQLKTVIAVQKALAVSGPFPLESIHDMDQLMTNQQREGHHHHHH	not soluble
MSLSWADKYRPKNIDDVILNSEIRKQITEWIESWKEGIPKKRSLILYGSQGTGKTTTAYAIAGTFGVPVVEMNASDQRNRDSMRGTALMASLYGDLFVESAKRPSKVILIDEADNMFERGGDTGGIYELSKIIKNSANPIVITMNDIFEFRKKNYASDVISASLTIEMKQYGRKLDKNYNEFRRNIKARLIFILKNEGYTLPDQVVDRIIDRNMPDIRSMINDLEASAVSGTNISDEGHHHHHH	soluble
MSLTAGKMNVKEKIKDIHFYRAVSDISRPIADSTHTISQIGFYIVELMTAEGVRGQGYVLSFHYSPGAMEGALRDVCSFISAGEYAVYDTVLARADWDREAEYFGNTGINNCAIAAVNLAMWDAWGHTCRQPVWKMLGANRRRIPVYGSGGWISYTDQELLEEVLDYKKRGFKAVKIKVGSGSIERDAERLAKCREALGDSVKIMMDANQGFNVPDALELARRASSMGIQWFEEPVVHTDYAGYQLLRNQCGIALAMGEREYDFEALKQLSVRNALDLWQPDIVRLGGVEAWRESAALAEAFGLPVLPHYYKDYDVPLLCTVRSPYGAESFDWIDGIIDNAMEIENGFASPREGDGWGFRFREECMTEVEGHHHHHH	soluble
MSLTASPIVVFDLDGTLIDTAPDLINALNFILVREGMPAVPMAVARNMIGQGARRLLERGLELDGRVIAQDDVNRLTVDFIDYYAAHIADESRPFEGLEATLDELSESGYRFAVCTNKLEWLSKLLLDRLGLSPRFAAICGADTFGVAKPDPAILRETVAKAGGDLSAAIMVGDAGPDVGVARRAGVPVIGVEFGYTEVPIAELQPDLLVGHMRELPNAVGRLLPRREGHHHHHH	soluble
MSLTDAETAVMPDRTNTSRDHAKRYVRHFLADFAKLDQEYPRTYPRMIVRGEGAYVIDEEGRRILDAGSHLGACQIGHGHPEVADRIHQQVRNIEFIALDAGISHVYAAALGERLAKMVLCDDPVFSFTNSGSESNELAFKIARQYHRRRGQPGRVKIFSRNGSYHGSTLATSAATGAAPFKEGFGPLPEGFIQGAQPSPGRCGHCGFNDACSLACLDDFERLIMAEGSETVAAVIAEPIAIPQAVKVPPPDYFVRLRKFCDDHGILLIIDEVVCGFGRTGRMFGAEHFGVHGDIVTFAKGLTSGYVPMGAVAVARHVEEVFKNAPLLHLNTYAGHPVACAAAMAVLDIMERERLVLHSARMEPILRRELQRLQNAVARVRYLSVIGLLSSVIVDISDRPDPDAVIRRVRNIAYDNGLLARVARDGALLSVHFYPPLVVAEQDIVAGVRALEIALRMIEGHHHHHH	not soluble
MSLTEAPRVRLVGAEIFERPVEFRFPFRFGAARVTNAPQAFVRVRVEDASGRSTIGRSAEMMMPKWFDKNPSLSPEDNVGQLRASLRLAAEGLKSLQAETAFGLHVAAETEHHQAAATHGLPPLVASYGLALLDRAILDAVCRMMGACAAEAVRNNLLGVSGVAAPDLAGFDLTRFLSRLNVSSRLAVRHTIGLADVLTVADLGAMQRPADGLPQTLEDVIAAYGHRYFKIKVSGRPAEDIERLVAIAAILDDRVGDYRATLDGNEQFENIDLVCDLLDRIEEEPRLKRLRASMLFFEQPIARAEALSKPVVAAAQRMPLEIDESDGDMGAFLRARELGYAGISSKSCKGFYRALINRARVEKWNAEAGSSHYFMSAEDLTTQAGLALQQDLVLASLVGAGHVERNGHHYVDGMAGAPEGEQLAYLSHHGDLYEGAAGQTRLAIQAGEITFATALRSVGLGSSVDPDWAAMRPVSEGHHHHHH	not soluble
MSLTEILIVEDDDIIATLIERFLLQREYVVCAKVATGEDALYKAAEHLPDLVLMDINLAGKIDGITATKFITAIFHIPVIFLSGQDDETTLERATMAEPASFIIKPFNAKDLYSNIEIALHNDRILKRSKDYKGGKIRRIARAALSELDAYFILDKRGRIVFINPYGEHLLNVHRNDIILKPIGKYLTFYDTRQNTVFTDTFQDVIRESLVLGVRQHIAVKMSDNSFRHVVIQSTSIRDSENETIGMIVRMHMKTKSEEGHHHHHH	soluble
MSLTEISRFDAYPPTLTVNPIVPADAPATEHLVWTIAQAAEERKAGDLVILKVTDVSYLADYFVICTGFSRTQVRAIADNIEKQVELVHGQLPTHTEGNSESIWVLQDFGDVLVHTFMPEEREFYKLEAFWGHAQEQTLADIATAIGVAYNAPTSPEGHHHHHH	soluble
MSLTIAHDIDLSAVLAERLTTTHPDVLRELLAAFIHALMGAEADAVCGAGYGQRSSERTNSRNGYRHREFDTRAGTLDLAIPKLRQGSYFPDWLLERRKRAERALTTVVATCYLLGVSTRRMDKLVETLGITSLSKSQVSVMAKELDAAVEAFRTRPLDAGPYTFMAADALVLKVREAGRVVNVHALIATGVNAEGYREILGIDVTTTEDGAGWLTFLRSLTARGLSGVRLVTSDAHAGLVAAIGATLPGASWQRCRTHYATNLMAITPKSSWPWVRTLLHSVFDQPDAGSVAAQYDRIIDALADKLPKVADHLEDTRADLLAFTAFPKQIWRQIWSNNPQVICSPRDGVFDVRHEVLRSQVLRAGHAYLQLSRRQEPAEGRCRLHELSRRSRCVSRGEGHHHHHH	not soluble
MSLTKKELRKEQTNRFIESTIITTDLLLSSYLYDSTKMEEFLSFIANLDNKYSFINMYLVRTQFPGASIVKSYSSWKKENIQVRKNEKGISIFRPKVIEYVVYNNTKVTKDKWTNEIKELVKNNELEVYTYTKGFTLAKVFDISQTTLPKAQYPKQYFSYFIKEDNENINPNTKLLSLLCNFIAKHNIGITYATMGLSTSEQRFYDKNSHGIKHWIRLNDKNSITQNIYSLVKEYAHTLLGHDISAINNIENRYQAQLVAYAICKSFRLKGIELSSFDAFRSWVNTSTKEMRKKWINSVIFASKQFANDFNYFLDEIEINVDKANLRETASINELMGREGHHHHHH	soluble
MSLTKLYYEDQYIKEFKGEIIEVKEIDGKFHVLLDQTAFFPGGGGQMGDLGLIDGIKVLDVYEEEGKVYHVLEKEPKKLKNLQCELDWERRFDGMQQHLGQHLLSGCFYDLFGANTCGFHLGKEISTVDIVGFLDEKTIREAEKEANRLIFENLEVKSYAPSKKELKKVKTRRALPKTDEEIRIVEIVGLDLNACCGVHPRNTRDLQVIKIRRWEKHKNATRIEYVAGNRAVSEGHHHHHH	soluble
MSLTKPTIALTELVEKGADADLLKQMIQFVAQRMMEFDVEGLCGAGFDVKSPDRTNSRNGYRDRLWQTRAGDVDLKIPKLRQGNYFPGFLEPRRTAEKAMAAVIQEAYIQGVSTRSVDELVKAMGMTGISKSQVSRLAGEIDERVHAFLDRPLEGDWPYLWIDATYVKVREAGRIVSVVVIIAVAVNTDGGREVLGMRVGPSEAEPFWTDFLRSLMRRGLRGVKLVISDAHEGLKAAASKVFNATWQRCRVHFMRNAMAHVGKGQRTMVAALLRTVFAQDSRAECHQQWRLVADQLREKYPKIATLMDGCEDEVLAHMAFPKAHRQQLHSTNPLERLNAEIKRRTDVVGIFPNDPAITRLVGAMLLEQNDEWCLQRRYMQLEAFEAVSDNPQAKLSAVINEGHHHHHH	soluble
MSLTKSGLAHAAGVSTSVIDGLVKQGVFETVFLPAPPVVAEPDPDYVEPRLEGPQKQAASEIIEDVRKGGFHVSLIDGVTGSGKTEVYFEAVAETLRQGKQVLILLPEIALTAAFLERFQDRFGAKPAEWHSDLSPRMREKVWRQAVTGEIKVVAGARSALFLPFDNLGLIIVDEEHDPAYKQEDRVFYNARDMAVVRARIAEFPVVLVSATPSVESQVNGSSGRYNTIHLHTRFGDAAMPDLHLVDMRRHPPERGGFLSPVLLRGIGKTIEKGEQSLLFLNRRGYAPLTLCRVCGHRFQCPQCSSWLVEHRFRNQLQCHQCGHNEPTPDHCPECGTFDHLVACGPGVERIAEEVEKHFPEARTIVLSSDLMGVKRLRLELEAIVKGEADIVIGTQLVAKGHNFPLMTLVGIVDADLGLANGDPRAAERTFQLLSQVTGRAGRTGLKSHGLLQTYQPQHPVMQAIVSGDASAFYEREIVEREKAVLPPFGRLASIIVSADTRAEAETHARGLRAAAPQVTGIMLLGPAEAPLALIRGRHRFRLLVHGRRNSDMQSFLRTLLASGPKERGSVHVQLDIDPQSFLEGHHHHHH	not soluble
MSLTLPDFRLIRLLPLASLVLTACTLPGHKGPGKSPDSPQWRQHQQEVRHLNQYQTRGAFAYISDDQKVYARFFWQQTGQDRYRLLLTNPLGSTELELNAQPGNVQLVDNKGQRYTADDAEEMIGKLTGMPIPLNSLRQWILGLPGDATDYKLDDQYRLSEVNYRQDGKNWKVVYGGYDSKTQPAMPANMELSDGSQRIKLKMDNWIVKEGGSHHHHHH	soluble
